Test results published in PMC8017934.
Values joined by “and” are separate entries in the source; they are usually repeats but may differ in a detail not shown here. Identical values can stand only once. Like-named read-outs stand apart in the source and are kept apart here.

Tests used:
[1] = biological target: SARS-CoV-2 NSP1 (ybbR-NSP1) WT;human 40S ribosomal subunit;eIF1, eIF1A, eIF5, eIF3 lacking 3j, TC-GMPPNP (eIF2, Met-tRNAi) (SARS-CoV-2;Homo sapiens;Homo sapiens) (UniProt P0DTD1); assay: single-molecule fluorescence (ZMW)
[2] = biological target: SARS-CoV-2 NSP1 (ybbR-NSP1) WT;human 40S ribosomal subunit (SARS-CoV-2;Homo sapiens) (UniProt P0DTD1); assay: single-molecule fluorescence (ZMW)
[3] = biological target: SARS-CoV-2 NSP1 (ybbR-NSP1) WT;human 40S ribosomal subunit;eIF1, eIF1A, eIF5, TC-GMPPNP (eIF2, Met-tRNAi) (SARS-CoV-2;Homo sapiens;Homo sapiens) (UniProt P0DTD1); assay: single-molecule fluorescence (ZMW)
[4] = system: human 40S ribosomal subunit;eIF1, eIF1A, eIF5, TC-GMPPNP (eIF2, Met-tRNAi) (Homo sapiens;Homo sapiens); assay: single-molecule fluorescence (ZMW)
[5] = biological target: MERS-CoV NSP1;human 40S ribosomal subunit (MERS-CoV;Homo sapiens) (UniProt K9N7C7); assay: single-molecule fluorescence (ZMW)
[6] = system: Bat-Hp-CoV NSP1;human 40S ribosomal subunit (Bat-Hp-CoV;Homo sapiens); assay: single-molecule fluorescence (ZMW)
[7] = biological target: SARS-CoV NSP1;human 40S ribosomal subunit (SARS-CoV;Homo sapiens) (UniProt P0C6X7); assay: single-molecule fluorescence (ZMW)
[8] = biological target: human 80S ribosome assembled on the CrPV IRES from 40S-ybbR-Cy3 and 60S-ybbR-Cy5 subunits (human (endogenous in HEK293T)) (UniProt P62841)
[9] = biological target: human 40S ribosomal subunit with the ybbR tag on RACK1, biotinylated or Cy5-labelled (human) (UniProt P63244)
[10] = biological target: human 40S ribosomal subunit with the ybbR tag on RACK1, biotinylated or Cy5-labelled (human) (UniProt P63244); remark: listed apart in the source
[11] = biological target: human 40S ribosomal subunit with the ybbR tag on RACK1, biotinylated or Cy5-labelled (human) (UniProt P63244); remark: listed apart in the source
[12] = biological target: human 40S ribosomal subunit with the ybbR tag on RACK1, biotinylated or Cy5-labelled (human) (UniProt P63244); remark: listed apart in the source
[13] = biological target: human 40S ribosomal subunit with the ybbR tag on uS19, Cy3-labelled (human (endogenous in HEK293T)) (UniProt P62841)
[14] = biological target: eIF1–40S(biotin) subunit complex (human) (UniProt P41567)
Chain of UniProt P41567 (P41567 whole entry, looked up, tested part not stated, one chain of several): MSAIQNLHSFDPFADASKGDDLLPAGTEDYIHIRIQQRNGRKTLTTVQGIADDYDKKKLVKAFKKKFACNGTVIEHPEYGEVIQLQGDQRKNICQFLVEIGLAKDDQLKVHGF

[15] = biological target: human 40S ribosomal subunit with the ybbR tag on RACK1, biotinylated or Cy5-labelled (human) (UniProt P63244); remark: listed apart in the source

Substance: GGCCAGCCCCCUGAUGGGGGCGACACUCCACCAUGAAUCACUCCCCUGUGAGGAACUACUGUCUUCACGCAGAAAGCGUCUAGCCAUGGCGUUAGUAUGAGUGUCGUGCAGCCUCCAGGACCCCCCCUCCCGGGAGAGCCAUAGUGGUCUGCGGAACCGGUGAGUACACCGGAAUUGCCAGGACGACCGGGUCCUUUCUUGGAUAAACCCGCUCAAUGCCUGGAGAUUUGGGCGUGCCCCCGCAAGACUGCUAGCCGAGUAGUGUUGGGUCGCGAAAGGCCUUGUGGUACUGCCUGAUAGGGUGCUUGCGAGUGCCCCGGGAGGUCUCGUAGACCGUGCACCAUGAGCACGAAUCCU [HCV+12]
- binding signal [1]: 0.013 s-1 (kobs)
- binding signal [2]: 0.044 s-1 (kobs)

Substance: GGUCUCUCUCUCUCUCUCUAUGUUCAAAUAAUCUCUCUCUCUCUCUCUCUCUCUCUCUCUCUC [M+41]
- binding signal (% complexes bound) [2]: 16
- binding signal [3]: 4 s-1 (koff)
- binding signal [4]: 0.0038 s-1 (koff)

Substance: GGCCAGCCCCCUGAUGGGGGCGACACUCCACCAUGAAUCACUCCCCUGUGAGGAACUACUGUCUUCACGCAGAAAGCGUCUAGCCAUGGCGUUAGUAUGAGUGUCGUGCAGCCUCCAGGACCCCCCCUCCCGGGAGAGCCAUAGUGGUCUGCGGAACCGGUGAGUACACCGGAAUUGCCAGGACGACCGGGUCCUUUCUUGGAUAAACCCGCUCAAUGCCUGGAGAUUUGGGCGUGCCCCCGCAAGACUGCUAGCCGAGUAGUGUUGGGUCGCGAAAGGCCUUGUGGUACUGCCUGAUAGGGUGCUUGCGAGUGCCCCGGGAGGUCUCGUAGACCGUGCACCAUGAGCACGAAUCCUAAACCUCAAAGAAAAACCGCCAGAACCAUGGAAGAC [HCV+48]
- Kd [2]: > 2000 nM
- binding signal (% 40S events with NSP1) [2]: 60

Substance: GGCCAGCCCCCUGAUGGGGGCGACACUCCACCAUGAAUCACUCCCCUGUGAGGAACUACUGUCUUCACGCAGAAAGCGUCUAGCCAUGGCGUUAGUAUGAGUGUCGUGCAGCCUCCAGGACCCCCCCUCCCGGGAGAGCCAUAGUGGUCUGCGGAACCGGUGAGUACACCGGAAUUGCCAGGACGACCGGGUCCUUUCUUGGAUAAACCCGCUCAAUGCCUGGAGAUUUGGGCGUGCCCCCGCAAGACUGCUAGCCGAGUAGUGUUGGGUCGCGAAAGGCCUUGUGGUACUGCCUGAUAGGGUGCUUGCGAGUGCCCCGGGAGGUCUCGUAGACCGUGCACCAUG [HCV+0]
- Kd [2]: < 1 nM
- binding signal (% 40S events with NSP1) [2]: 57
- binding signal (% complexes bound) [5]: 11
- Kd [6]: < 1 nM
- Kd [7]: < 2 nM

Substance: SARS-CoV-2 NSP1 with an N-terminal ybbR tag, fluorescently labelled (from UniProt P0DTD1 1-180) (natural protein)
- fraction of traces with an NSP1 binding event [8]: 30%
- Kd [9]: > 3000 nM
- koff [9]: 0.25 s⁻¹
- Kd [10]: < 1 nM
- fraction of IRES–40S complexes bound at least once by NSP1 (≥∼5 s) [10]: 77% and 60%
- koff [10]: < 0.0043 s⁻¹
- kon [11]: 3e+06 to 4e+06 M⁻¹ s⁻¹
- fraction of mRNA–40S complexes bound at least once by NSP1 (≥∼5 s) [12]: 16%
- kobs (apparent association rate) [12]: < 0.002 s⁻¹
- time NSP1 remained bound after association [13]: 120 s
- Kd [14]: < 10 nM
- koff [14]: 0.0042 s⁻¹
- kon [14]: 300000 M⁻¹ s⁻¹

Substance: SARS-CoV NSP1 with an N-terminal ybbR tag, Cy3-labelled (from UniProt P0C6X7 1-180) (natural protein)
- Kd [15]: < 2 nM
- fraction of IRES–40S complexes bound at least once by NSP1 (≥∼5 s) [15]: 62%
- koff [15]: < 0.006 s⁻¹

Substance: GGCCAGCCCCCUGAUGGGGGCGACACUCCACCAUGAAUCACUCCCCUGUGAGGAACUACUGUCUUCACGCAGAAAGCGUCUAGCCAUGGCGUUAGUAUGAGUGUCGUGCAGCCUCCAGGACCCCCCCUCCCGGGAGAGCCAUAGUGGUCUGCGGAACCGGUGAGUACACCGGAAUUGCCAGGACGACCGGGUCCUUUCUUGGAUAAACCCGCUCAAUGCCUGGAGAUUUGGGCGUGCCCCCGCAAGACUGCUAGCCGAGUAGUGUUGGGUCGCGAAAGGCCUUGUGGUACUGCCUGAUAGGGUGCUUGCGAGUGCCCCGGGAGGUCUCGUAGACCGUGCACCAUGAGCACG [HCV+6]
- binding signal (% complexes bound) [2]: 81
